Data published in the RNAGym collection of RNA variant scans (doi:10.1101/gr.219683.116).

B1: mRNA-splicing (parent)
chain: AGUUGCUGCUGGGAGCUCCAGCACAGUGAAAUGGACAGAAGGGCAGAGCAA

Variants of: B1
Test: exon inclusion enrichment index; higher = more inclusion; WT1 exon 5 minigene, HEK293

Row | Variant | exon inclusion enrichment index
1 | AGUUUCUUUUGGGAGCUCCAGCACAGUGAAAAGGACAGAAGGGCAGAGCAA | 0.11
2 | AGUUUCUUUUGGGAGCUCCAGCACAGUGAAAGGGACAGAAGGGCAGAGCAA | 0.00207
3 | AGUUUCUUUUGGGAGCUCCAGCACAGUGAAACGGACAGAAGGGCAGAGCAA | 0.344
4 | AGUUUCUUUUGGGAGCUCCAGCACAGGAAAAUGGACAGAAGGGCAGAGCAA | 0.148
5 | AGUUUCUUUUGGGAGCUCCAGCACAGGUAAAUGGACAGAAGGGCAGAGCAA | 0.000678
6 | AGUUUCUUUUGGGAGCUCCAGCACAGGCAAAUGGACAGAAGGGCAGAGCAA | 0.027
7 | AGUUGAAGAAGGGAGCUCCAGCACGGUGAAAUGGACAGAAGGGCAGAGCAA | 1.94
8 | AGUUGAAGAAGGGAGCUCCAGCACCGUGAAAUGGACAGAAGGGCAGAGCAA | 2.61
9 | AGUUGAAGAAGGGAGCUCCAGCACUGUGAAAUGGACAGAAGGGCAGAGCAA | 1.04
10 | AGUUUCUUUUGGGAGCUCCAGCACAGCUAAAUGGACAGAAGGGCAGAGCAA | 0.0729
11 | AGUUUCAUUUGGGAGCUCCAGCACAGUGAAAUGGACAGAAGGGCAGAGCAA | 0.343
12 | AGUUUCAUAUGGGAGCUCCAGCACAGUGAAAUGGACAGAAGGGCAGAGCAA | 0.367
13 | AGUUUCGGUUGGGAGCUCCAGCACAGUGAAAUGGACAGAAGGGCAGAGCAA | 0.575
14 | AGUUUCGGAUGGGAGCUCCAGCACAGUGAAAUGGACAGAAGGGCAGAGCAA | 2.09
15 | AGUUGAAGAUGGGAGCUCCAGCACAGUGAAAUGGACAGAAGGGCAGAGCAA | 1.65
16 | AGUUGAUUUUGGGAGCUCCAGCACAGUGAAAUGGACAGAAGGGCAGAGCAA | 0.134
17 | AGUUGAAGAAGGGAGCUCCAGCUGAGUGAAAUGGACAGAAGGGCAGAGCAA | 0.918
18 | AGUUGAAGAAGGGAGCUCCAGCUAAGUGAAAUGGACAGAAGGGCAGAGCAA | 0.207
19 | AGUUGAAGAAGGGAGCUCCAGCUUAGUGAAAUGGACAGAAGGGCAGAGCAA | 0.0381
20 | AGUUUCCAUUGGGAGCUCCAGCACAGUGAAAUGGACAGAAGGGCAGAGCAA | 0.504
21 | AGUUGAAGAAGGGGUCUCCAGCACAGUGAAAUGGACAGAAGGGCAGAGCAA | 0.274
22 | AGUUGAAGAAGGGGACUCCAGCACAGUGAAAUGGACAGAAGGGCAGAGCAA | 0.841
23 | AGUUGAAGAAGGGGCCUCCAGCACAGUGAAAUGGACAGAAGGGCAGAGCAA | 0.529
24 | AGUUGAAGAAGGGUUCUCCAGCACAGUGAAAUGGACAGAAGGGCAGAGCAA | 0.295
25 | AGUUGAAGAAGGGUCCUCCAGCACAGUGAAAUGGACAGAAGGGCAGAGCAA | 0.336
26 | AGUUGAAGAAGGGUACUCCAGCACAGUGAAAUGGACAGAAGGGCAGAGCAA | 0.217

Row | Variant | exon inclusion enrichment index
27 | AGUUUCCGCCGGGAGCUCCAGCACAGUGAAAUGGACAGAAGGGCAGAGCAA | 3.02
28 | AGUUGAAGAAGGGAGCUCCAGCCAAGUGAAAUGGACAGAAGGGCAGAGCAA | 0.907
29 | AGUUGAAGAAGGGAGCUCCAGCCUAGUGAAAUGGACAGAAGGGCAGAGCAA | 0.243
30 | AGUUGAAGAAGGGAGCUCCAGCCGAGUGAAAUGGACAGAAGGGCAGAGCAA | 1.83
31 | AGUUGAAGAAGGGCGCUCCAGCACAGUGAAAUGGACAGAAGGGCAGAGCAA | 0.774
32 | AGUUGAAGAAGGGGGCUCCAGCACAGUGAAAUGGACAGAAGGGCAGAGCAA | 0.618
33 | AGUUGAAGAAGGGUGCUCCAGCACAGUGAAAUGGACAGAAGGGCAGAGCAA | 0.301
34 | AGUUGAUCUCGGGAGCUCCAGCACAGUGAAAUGGACAGAAGGGCAGAGCAA | 1.43
35 | AGUUUCCUUUGGGAGCUCCAGCACAGUGAAAUGGACAGAAGGGCAGAGCAA | 0.184
36 | AGUUUCUUUUGGGAGCUCCAGCACAGGGAAAUGGACAGAAGGGCAGAGCAA | 0.0266
37 | AGUUUCGAUUGGGAGCUCCAGCACAGUGAAAUGGACAGAAGGGCAGAGCAA | 1.04
38 | AGUUUCACUUGGGAGCUCCAGCACAGUGAAAUGGACAGAAGGGCAGAGCAA | 0.582
39 | AGUUGAAGAUAGGAGCUCCAGCACAGUGAAAUGGACAGAAGGGCAGAGCAA | 0.721
40 | AGUUGAAGAUCGGAGCUCCAGCACAGUGAAAUGGACAGAAGGGCAGAGCAA | 3.26
41 | AGUUGAAGAUUGGAGCUCCAGCACAGUGAAAUGGACAGAAGGGCAGAGCAA | 2.86
42 | AGUUGAUGAAGGGAGCUCCAGCACAGUGAAAUGGACAGAAGGGCAGAGCAA | 0.333
43 | AGUUGAUGACGGGAGCUCCAGCACAGUGAAAUGGACAGAAGGGCAGAGCAA | 2.01
44 | AGUUGAUGCUGGGAGCUCCAGCACAGUGAAAUGGACAGAAGGGCAGAGCAA | 0.079
45 | AGUUGAUUACGGGAGCUCCAGCACAGUGAAAUGGACAGAAGGGCAGAGCAA | 0.728
46 | AGUUGAUUAAGGGAGCUCCAGCACAGUGAAAUGGACAGAAGGGCAGAGCAA | 0.023
47 | AGUUGAAGAAGGGAGCUCCUGCACAGUGAAAUGGACAGAAGGGCAGAGCAA | 0.829
48 | AGUUGAAGAAGGGAGCUCCCGCACAGUGAAAUGGACAGAAGGGCAGAGCAA | 0.58
49 | AGUUGAAGAAGGGAGCUCCGGCACAGUGAAAUGGACAGAAGGGCAGAGCAA | 1.05
50 | AGUUUCCGACGGGAGCUCCAGCACAGUGAAAUGGACAGAAGGGCAGAGCAA | 2.66
51 | AGUUUCCGUUGGGAGCUCCAGCACAGUGAAAUGGACAGAAGGGCAGAGCAA | 0.916
